Consider 167 variants from the RNAGym collection of RNA variant scans (doi:10.7554/elife.90254).

B1: LINE1-mini (parent)
chain: GGCAGAGCUCAACACAGCGUGGCAAAGUGGCUGUGGCUAGACUGCC

In the data set the parent is B1. The experiment in a line: self-cleavage, relative activity (ratio to wild type); higher = more cleavage; in vitro, sequencing; the parent is a self-cleaving ribozyme.
For A4C G7A, the self-cleavage was 0.87.
Next, A4C G7C: 0.17; A4G A12C: 0.03; A4G A12G: 0.05.
Then A4G A12U, with 0.11; and C3U G30A, with 0.75; and C3U G30U, with 0.5.
Then C3U G30C, with 0.44; and A4G A6G, with 0.11.
As to A4G A6U, the self-cleavage was 0.27.
Then A4G A6C, with 0.14; and A4C A6C, with 0.09.
As to A4C A6G, the self-cleavage came to 0.37.
Then A4C A6U, with 0.11; and C3U G21A, with 1.19; and C3U G21U, with 0.41.
Next, C3U G21C: 0.47; A4C: 0.19.
Next, A4G: 0.5; A4U: 0.29; A4C U34A: 0.
Turning to A4C U34C, the self-cleavage amounted to 0.15.
Next, A4C U34G: 0.02.
Then A4G A24C, with 0.25.
With A4G A24G, the self-cleavage is 1.09.
Turning to A4G A24U, the self-cleavage worked out at 1.02.
Next, A4C U32C: 0.1; A4C U32A: 0.18; A4C U32G: 0.1.
Then A4G G21A, with 1.05; and A4G G21C, with 0.24; and A4G G21U, with 0.68.
Next, C3U C37A: 0.12; C3U C37G: 0.05.
Consider C3U C37U, for which the self-cleavage is 0.14.
For the variant A4C A39G, the self-cleavage is 0.9.
Then A4C A39C, with 0.07; and A4C A39U, with 0.09; and A4C U20A, with 0.08.
For A4C U20G, the self-cleavage was determined as 0.1.
With A4C U20C, the self-cleavage was determined as 0.05.
Next, A4C G27U: 0.07; A4C G27C: 0.07; A4C G27A: 0.17.
Turning to A4C A11G, the self-cleavage turned out to be 0.04.
For A4C A11U, the self-cleavage was determined as 0.04.
Then A4C A11C, with 0.04; and A4G C18A, with 0.31; and A4G C18U, with 0.55.
Next, A4G C18G: 0.16; A4G C10U: 0.22; A4G C10A: 0.06.
Next, A4G C10G: 0.05; A4G G17C: 0.5.
For A4G G17U, the self-cleavage came out at 0.18.
Next, A4G G17A: 0.06.
Next, A4G C37A: 0.06; A4G C37G: 0.07; A4G C37U: 0.13.
C3U U20G: the self-cleavage was determined as 0.28.
In the case of C3U U20A, the self-cleavage was 0.28.
C3U U20C: the self-cleavage was 0.15.
Next, A4G C45G: 0.37.
Then A4G C45A, with 0.45.
Next, A4G C45U: 0.6; A4C C23A: 0.25.
For A4C C23G, the self-cleavage is 0.23.
Next, A4C C23U: 0.16; A4G G33A: 0.12.
In the case of A4G G33C, the self-cleavage came to 0.07.
On to A4G G33U, for which the self-cleavage is 0.16.
Then A4C G17C, with 0.08; and A4C G17U, with 0.08; and A4C G17A, with 0.08.
Then A4C C37U, with 0.16; and A4C C37A, with 0.28.
Next, A4C C37G: 0.05; C3U U9C: 0.07.
As to C3U U9G, the self-cleavage came to 0.15.
Then C3U U9A, with 0.29; and A4C G36U, with 0.1.
Next, A4C G36C: 0.09; A4C G36A: 0.73.
Next, A4C C13U: 0.35.
For the variant A4C C13A, the self-cleavage came out at 0.15.
For the variant A4C C13G, the self-cleavage came to 0.17.
Next, C3U G35C: 0.11; C3U G35A: 0.22; C3U G35U: 0.18.
Turning to A4C A41U, the self-cleavage was 0.23.
Then A4C A41C, with 0.12; and A4C A41G, with 0.07; and A4C G33U, with 0.06.
Turning to A4C G33C, the self-cleavage turned out to be 0.04.
Next, A4C G33A: 0.29.
Next, A4C C46G: 0.13; A4C C46U: 0.18.
Then A4C C46A, with 0.14; and A4G C15U, with 0.65; and A4G C15G, with 0.14.
Consider A4G C15A, for which the self-cleavage came out at 0.08.
For A4G A39C, the self-cleavage is 0.06.
Then A4G A39G, with 0.22.
Next, A4G A39U: 0.33.
With A4C G40U, the self-cleavage worked out at 0.13.
Next, A4C G40A: 0.16.
In the case of A4C G40C, the self-cleavage was 0.12.
Next, A4G U32A: 0.06; A4G U32G: 0.08; A4G U32C: 0.15.
Then C3U U28A, with 0.4; and C3U U28C, with 0.24; and C3U U28G, with 0.23.
Consider C3U U43C, for which the self-cleavage worked out at 0.09.
Then C3U U43A, with 0.14; and C3U U43G, with 0.2.
Then C3U G29C, with 0.37.
C3U G29A: the self-cleavage was found to be 0.26.
Next, C3U G29U: 0.34; A4C G29C: 0.24; A4C G29U: 0.45.
Next, A4C G29A: 0.07; A4G G27A: 0.4.
A4G G27C: the self-cleavage was 0.24.
Next, A4G G27U: 0.31.
Next, A4G G35A: 0.15; A4G G35U: 0.19.
Then A4G G35C, with 0.1; and A4C A26U, with 0.11; and A4C A26C, with 0.1.
For A4C A26G, the self-cleavage was 0.15.
Next, A4C U43C: 0.08.
Then A4C U43G, with 0.17.
Next, A4C U43A: 0.06.
Take A4C A12G: the self-cleavage came to 0.06.
Next, A4C A12C: 0.03; A4C A12U: 0.17; C3U U38G: 0.04.
Then C3U U38C, with 0.19; and C3U U38A, with 0.19; and A4C A16G, with 0.09.
As for A4C A16C, the self-cleavage came out at 0.04.
Next, A4C A16U: 0.05.
Next, A4C G21C: 0.18; A4C G21A: 0.42; A4C G21U: 0.21.
As for A4G U43A, the self-cleavage is 0.12.
In the case of A4G U43G, the self-cleavage turned out to be 1.35.
With A4G U43C, the self-cleavage amounted to 1.34.
Then A4G G30A, with 1.37.
With A4G G30U, the self-cleavage amounted to 0.45.
Turning to A4G G30C, the self-cleavage came to 0.91.
Then C3U U32G, with 0.09; and C3U U32A, with 0.07.
With C3U U32C, the self-cleavage worked out at 0.19.
Then A4C C31U, with 0.06.
Next, A4C C31A: 0.14; A4C C31G: 0.06.
Next, A4G A14G: 0.2.
Regarding A4G A14C, the self-cleavage was determined as 0.12.
Then A4G A14U, with 0.24.
Then C3U G36C, with 0.19; and C3U G36U, with 0.22; and C3U G36A, with 0.34.
Then A4C G19U, with 0.06; and A4C G19A, with 0.28; and A4C G19C, with 0.07.
